The values that follow come from US20220332804A1 (CSL INNOVATION, published 2022).

The Kd is the equilibrium constant for the complex coming apart. The low end stands for tighter binding, the high end for weaker binding.

Assay in all cases: SPR, mAb captured, C2 mutant analyte;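 further: Anti-C2 mAbs captured on goat anti-human IgG Biacore CM5 chips, alanine or serine C2 surface mutants flowed over at 37 °C, double-referenced sensorgrams fitted to a 1:1 binding model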
(In general: SPR reads the build-up and loss of mass on a sensor chip optically.)

One assay has as its target T1, human C2 L620A (human, UniProt P06681 21-752).
T1 sequence: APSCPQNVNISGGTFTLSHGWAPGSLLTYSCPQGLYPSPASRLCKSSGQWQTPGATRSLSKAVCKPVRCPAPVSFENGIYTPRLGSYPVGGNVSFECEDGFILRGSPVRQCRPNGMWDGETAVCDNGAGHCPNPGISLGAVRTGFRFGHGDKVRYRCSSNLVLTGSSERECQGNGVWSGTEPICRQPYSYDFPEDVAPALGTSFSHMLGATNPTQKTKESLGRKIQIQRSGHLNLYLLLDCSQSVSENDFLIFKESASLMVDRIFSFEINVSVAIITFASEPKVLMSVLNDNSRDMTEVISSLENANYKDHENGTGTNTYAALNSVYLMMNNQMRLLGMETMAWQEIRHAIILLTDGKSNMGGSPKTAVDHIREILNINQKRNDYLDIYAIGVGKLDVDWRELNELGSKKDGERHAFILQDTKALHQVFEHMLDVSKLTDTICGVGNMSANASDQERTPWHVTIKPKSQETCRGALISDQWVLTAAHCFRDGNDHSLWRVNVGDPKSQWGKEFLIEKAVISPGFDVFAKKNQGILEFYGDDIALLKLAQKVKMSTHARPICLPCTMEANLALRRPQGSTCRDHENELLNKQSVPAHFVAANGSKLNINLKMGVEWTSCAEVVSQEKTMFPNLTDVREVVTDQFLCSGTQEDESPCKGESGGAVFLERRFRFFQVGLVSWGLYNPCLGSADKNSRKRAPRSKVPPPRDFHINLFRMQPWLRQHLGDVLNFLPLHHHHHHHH

The target of a further assay is T2, human C2 K430A (human, UniProt P06681 21-752).
T2 sequence: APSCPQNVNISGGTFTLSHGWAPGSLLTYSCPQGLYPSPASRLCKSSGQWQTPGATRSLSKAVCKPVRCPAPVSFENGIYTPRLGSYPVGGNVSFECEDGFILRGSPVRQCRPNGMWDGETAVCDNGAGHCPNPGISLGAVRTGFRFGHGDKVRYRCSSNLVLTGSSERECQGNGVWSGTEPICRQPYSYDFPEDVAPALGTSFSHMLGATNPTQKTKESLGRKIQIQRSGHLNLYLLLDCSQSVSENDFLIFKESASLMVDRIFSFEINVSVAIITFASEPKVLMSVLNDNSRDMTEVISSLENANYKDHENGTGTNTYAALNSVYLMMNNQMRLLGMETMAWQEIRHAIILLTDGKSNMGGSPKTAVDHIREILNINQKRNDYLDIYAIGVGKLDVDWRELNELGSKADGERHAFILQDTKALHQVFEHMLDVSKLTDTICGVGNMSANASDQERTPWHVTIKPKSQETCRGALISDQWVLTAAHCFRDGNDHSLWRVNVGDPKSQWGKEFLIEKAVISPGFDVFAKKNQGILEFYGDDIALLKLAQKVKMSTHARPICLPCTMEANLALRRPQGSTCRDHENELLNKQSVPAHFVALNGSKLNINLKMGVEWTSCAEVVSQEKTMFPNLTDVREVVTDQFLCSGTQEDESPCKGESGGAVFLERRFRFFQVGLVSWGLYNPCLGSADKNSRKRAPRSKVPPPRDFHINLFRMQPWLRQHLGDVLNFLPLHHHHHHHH

The target of a further assay is T3, human C2 K443A (human, UniProt P06681 21-752).
T3 sequence: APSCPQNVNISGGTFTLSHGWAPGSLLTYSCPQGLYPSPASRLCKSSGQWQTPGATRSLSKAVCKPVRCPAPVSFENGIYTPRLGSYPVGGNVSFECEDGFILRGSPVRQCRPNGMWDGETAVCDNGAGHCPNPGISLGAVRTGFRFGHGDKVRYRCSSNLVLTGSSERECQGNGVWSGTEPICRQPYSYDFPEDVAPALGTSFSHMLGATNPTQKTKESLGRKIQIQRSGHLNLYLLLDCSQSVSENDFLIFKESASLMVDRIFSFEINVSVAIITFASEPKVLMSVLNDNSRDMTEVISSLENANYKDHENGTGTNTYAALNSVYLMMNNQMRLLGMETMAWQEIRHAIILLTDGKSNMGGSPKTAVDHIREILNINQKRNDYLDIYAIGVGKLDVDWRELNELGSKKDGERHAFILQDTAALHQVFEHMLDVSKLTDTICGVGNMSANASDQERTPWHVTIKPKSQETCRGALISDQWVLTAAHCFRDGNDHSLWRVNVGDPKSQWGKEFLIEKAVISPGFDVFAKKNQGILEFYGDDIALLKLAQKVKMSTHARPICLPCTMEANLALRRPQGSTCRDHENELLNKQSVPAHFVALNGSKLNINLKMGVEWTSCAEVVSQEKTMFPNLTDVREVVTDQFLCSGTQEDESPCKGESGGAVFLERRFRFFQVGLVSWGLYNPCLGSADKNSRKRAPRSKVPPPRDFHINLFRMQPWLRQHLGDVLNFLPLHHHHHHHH

In another assay the target is T4, human C2 F437A (human, UniProt P06681 21-752).
T4 sequence: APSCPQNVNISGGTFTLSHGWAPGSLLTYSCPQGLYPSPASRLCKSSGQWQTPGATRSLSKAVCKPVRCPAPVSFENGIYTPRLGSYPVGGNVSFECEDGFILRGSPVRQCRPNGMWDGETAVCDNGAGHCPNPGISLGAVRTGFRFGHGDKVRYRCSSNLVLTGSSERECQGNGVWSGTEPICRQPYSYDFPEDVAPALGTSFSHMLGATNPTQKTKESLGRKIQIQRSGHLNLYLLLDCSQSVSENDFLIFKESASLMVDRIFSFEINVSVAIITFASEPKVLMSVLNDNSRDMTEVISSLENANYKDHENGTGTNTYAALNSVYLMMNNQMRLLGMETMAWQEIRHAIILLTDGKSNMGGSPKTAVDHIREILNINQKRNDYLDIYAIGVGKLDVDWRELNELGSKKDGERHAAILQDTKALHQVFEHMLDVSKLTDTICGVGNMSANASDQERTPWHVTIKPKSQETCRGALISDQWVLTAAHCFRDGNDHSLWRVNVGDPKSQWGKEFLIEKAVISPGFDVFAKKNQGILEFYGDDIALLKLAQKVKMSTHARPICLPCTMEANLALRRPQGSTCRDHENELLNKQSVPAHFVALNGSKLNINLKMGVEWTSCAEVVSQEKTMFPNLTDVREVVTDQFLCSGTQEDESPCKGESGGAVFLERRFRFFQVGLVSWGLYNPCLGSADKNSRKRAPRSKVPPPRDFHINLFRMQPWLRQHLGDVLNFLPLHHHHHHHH

B1: RF16-214 (antibody, V domains shown)
VH: EVQLLESGGGLVQPGGSLRLSCAASGFTFSWYQMMWVRQAPGKGLEWVSRIYPSGGGTAYADSVKGRFTISRDNSKNTLYLQMNSLRAEDTAVYYCARDAGYGDNWGQGTLVTVSS
VL: QSALTQPPSVSVSPGQTASITCSGDKLGEKYASWYQQKAGQSPVMVIYQDRKRPSGIPERFSGSNSGNTATLTISGTQAMDEADYYCQAWDTRAVVFGGGTKLTVLG
With B1, the results for the Kd in the assay with human C2 L620A, with human C2 K430A and with human C2 F437A were 30.8 nM, 308 nM and 381 nM, respectively. In addition, in the assay with human C2 K443A, the binding result is given as “no binding”.
